US20140335050A1, “METHODS, COMPOSITIONS, AND KITS FOR THE TREATMENT OF CANCER” (The General Hospital Corporation, priority 2011, published 2014)

What was measured:
Assay type in all cases: cell-based, human
[1] = tested on: U-118 MG glioma cell line; assay: Antibody staining and flow cytometry (intracellular gp100; surface MHC Class I/II)
Experimental: (§1) Cells were fixed with 1% formaldehyde, permeabilized with 0.1% saponin, stained with monoclonal antibodies to melanocyte antigens. Antibodies were obtained with specificity for: MART-1 from Vector Labs (Burlingame, Calif.); gp100 HMB45 from DakoCytomation (Carpinteria, Calif.) and then visualized with goat anti-mouse FITC-conjugated secondary antibody from Invitrogen (Fredrick, Md.). The level of EGFP was determined by flow cytometry of unfixed cells that were washed and resuspended in 1×PBS.
(§2) Cells were plated at a density of 1×10^5 in 1 ml of medium in a 24-well plate and cultured for varying times as indicated in results. […] After incubation, cells were collected by trypsinization and then evaluated by flow cytometry.
(§3) Intracellular staining and flow cytometric analyses of cytoplasmic Melan-A/MART-1, and gp100 expression were performed as described previously. Cells were fixed with 1% formaldehyde, permeabilized with 0.1% saponin, stained with monoclonal antibodies to melanocyte antigens. Antibodies were obtained with specificity for: Melan-A/MART-1 from Vector Labs (Burlingame, Calif.); gp100/HMB45 from DakoCytomation (Carpinteria, Calif.) and then visualized with goat anti-mouse FITC-conjugated secondary antibody from Invitrogen (Frederick, Md.). The level of EGFP was determined by flow cytometry of unfixed cells washed and resuspended in 1×PBS. Surface staining of MHC Class I was carried out using the antibody W6/32 on cells harvested with Cell Stripper from MediaTech Inc. (Manassas, Va.) and carried out on ice.
(§4) Cell were seeded at 1×10^6 cells in a T25 flask with 10 ml of media for the 4 day IFN-beta pre-treatments. Cells were then harvested and plated in 24 well plate at 1×10^5 cells per well in 1 ml of media for 3 day treatments.
(§5) For surface staining of HLA Class I and II antigens, cells were harvested using CellStripper™ from Mediatech (Manassas, Va.). All staining steps were performed on ice. Following a first incubation with antibody to Class I (W6/32) or Class II (L243) for 30 minutes. Stained cells were washed twice with cold PBS and then stained with a goat anti-mouse FITC secondary antibody to allow for quantitative analysis by flow cytometry. For evaluation of cytoplasmic antigens, including Melan-A/MART-1 and gp100, cells were first fixed in paraformaldehyde and permeabilized with saponin as previously described. Staining for cytoplasmic antigens was carried out at room temperature (22° C.).

MU89 melanoma cell line = assay: Antibody staining and flow cytometry (intracellular Melan-A/MART-1, gp100, TRP-2; surface MHC Class I/II)
Experimental: as §1, §2, §3, §4, §5

[2] = tested on: MCF-7 breast cancer cells; assay: Surface antibody staining and flow cytometry (MHC Class I/II)
Experimental: as §3, §4, §5

U2-OS osteosarcoma cells = assay: as above
Experimental: as §3, §4, §5

[3] = tested on: HeLa cervical carcinoma cells; assay: as above
Experimental: as §3, §4, §5

tumor cell lines = assay: MHC Class I and Class II surface staining, statements over a panel of tumor cell lines; settings: HeLa, MCF-7, U2-OS, MU-89, U118, Jurkat, Raji (Table 19)
Experimental: as §5

[4] = tested on: EBV-19 B cell lymphoma cells; assay: Surface antibody staining and flow cytometry (MHC Class I/II); settings: three days, IFN-β 5000 Units/ml, IFN-γ 100 ng/ml
Experimental: as §3, §5

[5] = tested on: Jurkat T cell lymphoma cells; assay: as above
Experimental: as §3, §5

[6] = tested on: Raji B cell lymphoma cells; assay: as above
Experimental: as §3, §4, §5

[7] = U118 cells, Table 20, single agent or simultaneous combination
[8] = MU89 cells, Table 20, single agent or simultaneous combination
[9] = MCF-7 cells, Table 20, single agent or simultaneous combination
[10] = U2-OS cells, Table 20, single agent or simultaneous combination
[11] = HeLa cells, Table 20, single agent or simultaneous combination
[12] = MU89, three days, IFN-β 5000 Units/ml, IFN-γ 100 ng/ml, PU-H71 0.3 mg/ml
[13] = three days, IFN-β 5000 Units/ml, IFN-γ 100 ng/ml, PU-H71 0.3 mg/ml
[14] = U2-OS, three days, IFN-β 5000 Units/ml, IFN-γ 100 ng/ml, PU-H71 0.3 mg/ml

IFN-G was tested, and the “L243 (MHC Class II surface staining)” value [1, 7] was 53.6, the “W6/32 (MHC Class I surface staining)” value [1, 7] was 232.8 and the “L243 (MHC Class II surface staining)” value (MU89 melanoma cell line; [8]) was 64.3. For the same molecule, the “W6/32 (MHC Class I surface staining)” value (MU89 melanoma cell line; [8]) was 86.7, the “L243 (MHC Class II surface staining)” value (MU89 melanoma cell line; MU89 cells, Table 21, no pre-treatment, treatment as labelled) was 81 and the “L243 (MHC Class II surface staining)” value (MU89 melanoma cell line; MU89 cells, Table 21, pre-treatment PU-H71 (3 days), then treatment as labelled) was 90. The “L243 (MHC Class II surface staining)” value (MU89 melanoma cell line; MU89 cells, Table 21, substance given as pre-treatment (3 days) only, no subsequent treatment) was 64, the “L243 (MHC Class II surface staining)” value [2, 9] was 59.1 and the “W6/32 (MHC Class I surface staining)” value [2, 9] was 478.5. For the same molecule, the “L243 (MHC Class II surface staining)” value (U2-OS osteosarcoma cells; [10]) was 142.8, the “W6/32 (MHC Class I surface staining)” value (U2-OS osteosarcoma cells; [10]) was 397.1 and the “L243 (MHC Class II surface staining)” value [3, 11] was 86.0. For the same molecule, the “W6/32 (MHC Class I surface staining)” value [3, 11] was 464.8, the “L243 (MHC Class II surface staining)” value ([3]; HeLa cells, Table 21, no pre-treatment, treatment as labelled) was 97 and the “L243 (MHC Class II surface staining)” value ([3]; HeLa cells, Table 21, pre-treatment PU-H71 (3 days), then treatment as labelled) was 33. For the same molecule, the “L243 (MHC Class II surface staining)” value ([3]; HeLa cells, Table 21, substance given as pre-treatment (3 days) only, no subsequent treatment) was 76.

B1: IFN-γ: IFN-γ-1b stock solution 100 μg/ml in PBS; SEQ ID NO: 5 (protein)
chain: MQDPYVKEAENLKKYFNAGHSDVADNGTLFLGILKNWKEESDRKIMQSQIVSFYFKLFKNFKDDQSIQKSVETIKEDMNVKFFNSNKKKRDDFEKLTNYSVTDLNVQRKAIHELIQVMAELPPAAETGKRKRSQMLFRGR
modifications: IFN-gamma-1b
With B1 the “Class I MHC expression over the tumor panel” value (tumor cell lines) was “induce significant increases”, the “Class II MHC expression over the tumor panel” value (tumor cell lines) was “induced significant Class II” and the “MHC Class II, geometric mean of surface staining (L2443)” value (from here on “MHC Class II, geometric mean”) ([1]; Giloma-118, three days, IFN-β 5000 Units/ml, IFN-γ 100 ng/ml, PU-H71 0.3 mg/ml) was 40. The “MHC Class I, geometric mean of surface staining (W6/32)” value (“MHC Class I, geometric mean” for short) ([1]; Giloma-118, three days, IFN-β 5000 Units/ml, IFN-γ 100 ng/ml, PU-H71 0.3) was 137, the “L243 (MHC Class II surface staining)” value ([1]; U118, single agent) was 65.3 and the “W6/32 (MHC Class I surface staining)” value ([1]; U118, single agent) was 250.5. The “MHC Class I, geometric mean” value (MU89 melanoma cell line; [12]) was 213, the “MHC Class II, geometric mean” value (MU89 melanoma cell line; [12]) was 139 and the “L243 (MHC Class II surface staining)” value (MU89 melanoma cell line; MU-89, single agent) was 57.6. For the same molecule, the “W6/32 (MHC Class I surface staining)” value (MU89 melanoma cell line; MU-89, single agent) was 138.0, the “MHC Class II, geometric mean” value ([4]; PU-H71 0.3 mg/ml) was 118 and the “MHC Class I, geometric mean” value ([4]; PU-H71 0.3) was 277. For the same molecule, the “L243 (MHC Class II surface staining)” value ([5]; single agent) was 1.1, the “W6/32 (MHC Class I surface staining)” value ([5]; single agent) was 86.5 and the “MHC Class I, geometric mean” value ([5]; three days, IFN-β 5000 Units/ml, IFN-γ 100 ng/ml, PU-H71 0.3 μg/ml) was 87. For the same molecule, the “MHC Class II, geometric mean” value [5, 13] was 1, the “L243 (MHC Class II surface staining)” value ([2]; MCF-7, single agent) was 59.1 and the “W6/32 (MHC Class I surface staining)” value ([2]; MCF-7, single agent) was 478.5. For the same molecule, the “L243 (MHC Class II surface staining)” value (U2-OS osteosarcoma cells; U2-OS, single agent) was 87.6, the “W6/32 (MHC Class I surface staining)” value (U2-OS osteosarcoma cells; U2-OS, single agent) was 293.2 and the “MHC Class I, geometric mean” value (U2-OS osteosarcoma cells; [14]) was 284. For the same molecule, the “MHC Class II, geometric mean” value (U2-OS osteosarcoma cells; [14]) was 237, the “L243 (MHC Class II surface staining)” value ([6]; single agent) was 339.3 and the “W6/32 (MHC Class I surface staining)” value ([6]; single agent) was 117. For the same molecule, the “MHC Class I, geometric mean” value [6, 13] was 117, the “MHC Class II, geometric mean” value [6, 13] was 142 and the “L243 (MHC Class II surface staining)” value ([3]; HELA, single agent) was 86.0. The “W6/32 (MHC Class I surface staining)” value ([3]; HELA, single agent) was 464.8, the “MHC Class II, geometric mean” value ([3]; HeLa, three days, IFN-β 5000 Units/ml, IFN-γ 100 ng/ml, PU-H71 0.3 mg/ml) was 214 and the “MHC Class I, geometric mean” value ([3]; HeLa, three days, IFN-β 5000 Units/ml, IFN-γ 100 ng/ml, PU-H71 0.3) was 637.
